Results as given in publication PMC9482650, “Quantitative fragmentomics allow affinity mapping of interactomes” (Nature Communications, 2022).

T1: RADIL, Q96JH8
T1 sequence (Q96JH8 971-1071, limits assumed, looked up): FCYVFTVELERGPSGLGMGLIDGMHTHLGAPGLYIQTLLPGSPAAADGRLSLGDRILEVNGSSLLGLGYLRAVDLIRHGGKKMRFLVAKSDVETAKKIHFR

T2: LIN7B, Q9HAP6
T2 sequence (Q9HAP6 88-185, limits assumed, looked up): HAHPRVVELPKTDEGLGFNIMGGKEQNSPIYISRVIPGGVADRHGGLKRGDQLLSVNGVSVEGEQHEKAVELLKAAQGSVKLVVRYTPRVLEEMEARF

T3: GRIP1_5, Q9Y3R0
T3 sequence (Q9Y3R0 568-668, limits assumed, looked up): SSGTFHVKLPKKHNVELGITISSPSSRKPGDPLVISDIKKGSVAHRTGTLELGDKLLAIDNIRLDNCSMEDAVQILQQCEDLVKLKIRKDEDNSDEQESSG

T4: TIAM2, Q8IVF5
T4 sequence (Q8IVF5 885-986, limits assumed, looked up): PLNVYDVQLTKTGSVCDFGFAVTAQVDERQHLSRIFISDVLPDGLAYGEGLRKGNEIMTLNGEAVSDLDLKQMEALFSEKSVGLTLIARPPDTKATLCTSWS

T5: LNX2_2, Q8N448
T5 sequence (Q8N448 334-432, limits assumed, looked up): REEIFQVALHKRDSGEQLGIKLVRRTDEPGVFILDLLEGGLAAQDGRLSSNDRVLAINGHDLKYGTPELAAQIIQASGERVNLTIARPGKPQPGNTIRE

T6: DLG3_2, Q92796
T6 sequence (Q92796 221-321, limits assumed, looked up): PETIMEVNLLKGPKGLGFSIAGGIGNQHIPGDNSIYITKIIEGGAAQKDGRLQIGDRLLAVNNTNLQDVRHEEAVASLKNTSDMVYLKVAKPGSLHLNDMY

T7: MPP2, Q14168
T7 sequence (Q14168 180-250, limits assumed, looked up): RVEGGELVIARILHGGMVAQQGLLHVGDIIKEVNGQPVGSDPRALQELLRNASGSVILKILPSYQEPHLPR

T8: HTRA3, P83110
T8 sequence (P83110 354-453, limits assumed, looked up): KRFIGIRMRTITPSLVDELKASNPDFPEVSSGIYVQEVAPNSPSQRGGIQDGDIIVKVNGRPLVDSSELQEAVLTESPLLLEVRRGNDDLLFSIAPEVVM

T9: LNX2_3, Q8N448
T9 sequence (Q8N448 463-564, limits assumed, looked up): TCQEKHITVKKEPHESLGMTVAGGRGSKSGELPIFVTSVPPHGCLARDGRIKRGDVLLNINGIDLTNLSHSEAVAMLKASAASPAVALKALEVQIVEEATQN

T10: ARHGAP21, Q5T5U3
T10 sequence (Q5T5U3 45-169, limits assumed, looked up): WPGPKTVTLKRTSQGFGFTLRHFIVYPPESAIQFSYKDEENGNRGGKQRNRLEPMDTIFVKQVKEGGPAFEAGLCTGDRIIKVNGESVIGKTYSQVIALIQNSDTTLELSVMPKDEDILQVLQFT

T11: NHERF3_1, Q5T2W1
T11 sequence (Q5T2W1 4-100, limits assumed, looked up): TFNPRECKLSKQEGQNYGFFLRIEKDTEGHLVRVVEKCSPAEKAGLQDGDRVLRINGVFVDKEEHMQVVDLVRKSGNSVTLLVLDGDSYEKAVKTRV

T12: GRIP1_4, Q9Y3R0
T12 sequence (Q9Y3R0 467-571, limits assumed, looked up): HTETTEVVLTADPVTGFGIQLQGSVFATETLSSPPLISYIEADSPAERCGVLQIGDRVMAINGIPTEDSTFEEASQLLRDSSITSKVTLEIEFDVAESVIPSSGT


What was measured:
Assay in all cases: holdup assay
Set-up in all cases: key: below the threshold = too weak to quantify, mostly under pKd 3.1 to 4
Conditions in all cases: plain residues with an end cap or a label only (N-terminal biotin on a linker: ado-ado)
TJP2_1, Q9UDY2 = biological target: TJP2_1, Q9UDY2
RADIL, Q96JH8 = biological target: T1, RADIL, Q96JH8
MAST2, Q6P0Q8 = biological target: MAST2, Q6P0Q8
FRMPD4, Q14CM0 = biological target: FRMPD4, Q14CM0
IL16_4, Q14005 = biological target: IL16_4, Q14005
SNX27, Q96L92 = biological target: SNX27, Q96L92
LIN7B, Q9HAP6 = biological target: T2, LIN7B, Q9HAP6
GRIP1_5, Q9Y3R0 = biological target: T3, GRIP1_5, Q9Y3R0
LAP2, Q96RT1 = biological target: LAP2, Q96RT1
TIAM2, Q8IVF5 = biological target: T4, TIAM2, Q8IVF5
MAGI2_2, Q86UL8 = biological target: MAGI2_2, Q86UL8
IL16_3, Q14005 = biological target: IL16_3, Q14005
DLG1_1, Q12959 = biological target: DLG1_1, Q12959
LNX2_2, Q8N448 = biological target: T5, LNX2_2, Q8N448
DLG3_2, Q92796 = biological target: T6, DLG3_2, Q92796
MPP2, Q14168 = biological target: T7, MPP2, Q14168
PARD3_3, Q8TEW0 = biological target: PARD3_3, Q8TEW0
HTRA3, P83110 = biological target: T8, HTRA3, P83110
LNX2_3, Q8N448 = biological target: T9, LNX2_3, Q8N448
NOS1, P29475 = biological target: NOS1, P29475
ARHGAP21, Q5T5U3 = biological target: T10, ARHGAP21, Q5T5U3
NHERF3_1, Q5T2W1 = biological target: T11, NHERF3_1, Q5T2W1
GRIP2_5, Q9C0E4 = biological target: GRIP2_5, Q9C0E4
Inadl_2, Q8NI35 = biological target: Inadl_2, Q8NI35
GRIP1_4, Q9Y3R0 = biological target: T12, GRIP1_4, Q9Y3R0

Chain of MAST2, Q6P0Q8 (Q6P0Q8 1099-1202): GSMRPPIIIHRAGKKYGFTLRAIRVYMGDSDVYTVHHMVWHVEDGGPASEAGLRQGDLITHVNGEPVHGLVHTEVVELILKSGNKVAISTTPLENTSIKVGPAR
Chain of IL16_3, Q14005 (Q14005 1107-1207): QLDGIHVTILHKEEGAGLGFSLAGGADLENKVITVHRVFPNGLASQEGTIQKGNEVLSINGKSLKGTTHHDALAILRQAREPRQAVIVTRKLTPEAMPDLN
Chain of MAGI2_2, Q86UL8 (Q86UL8 410-522): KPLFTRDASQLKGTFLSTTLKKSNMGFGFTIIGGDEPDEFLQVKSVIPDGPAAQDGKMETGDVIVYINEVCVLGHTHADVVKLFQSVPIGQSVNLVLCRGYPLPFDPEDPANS
Chain of IL16_4, Q14005 (Q14005 1229-1329): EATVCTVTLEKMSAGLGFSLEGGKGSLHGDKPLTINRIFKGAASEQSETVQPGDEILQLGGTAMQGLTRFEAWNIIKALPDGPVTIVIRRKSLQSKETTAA
Chain of LAP2, Q96RT1 (Q96RT1 other isoform, or with tags, fused parts or gaps): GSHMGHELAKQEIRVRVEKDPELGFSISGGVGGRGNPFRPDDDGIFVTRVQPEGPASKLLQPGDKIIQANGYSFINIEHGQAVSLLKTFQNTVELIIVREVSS
Chain of NOS1, P29475 (P29475 9-101): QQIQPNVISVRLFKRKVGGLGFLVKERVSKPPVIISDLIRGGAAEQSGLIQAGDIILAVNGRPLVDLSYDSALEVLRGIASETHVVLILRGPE
Chain of PARD3_3, Q8TEW0 (Q8TEW0 582-685): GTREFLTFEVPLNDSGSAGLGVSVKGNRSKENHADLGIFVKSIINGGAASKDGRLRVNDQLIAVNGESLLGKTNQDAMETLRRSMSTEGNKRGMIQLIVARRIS
Chain of GRIP2_5, Q9C0E4 (Q9C0E4 544-642): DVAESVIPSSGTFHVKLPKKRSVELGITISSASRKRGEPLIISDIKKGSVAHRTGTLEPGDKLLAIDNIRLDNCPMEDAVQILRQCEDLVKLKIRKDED
Chain of TJP2_1, Q9UDY2 (Q9UDY2 24-128): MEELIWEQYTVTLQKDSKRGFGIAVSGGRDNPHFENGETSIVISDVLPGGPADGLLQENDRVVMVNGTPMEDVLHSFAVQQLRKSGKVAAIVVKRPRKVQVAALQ
Chain of FRMPD4, Q14CM0 (Q14CM0 67-160): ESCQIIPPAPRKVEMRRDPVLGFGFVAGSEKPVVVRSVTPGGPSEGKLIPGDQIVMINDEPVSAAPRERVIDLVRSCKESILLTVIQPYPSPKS
Chain of Inadl_2, Q8NI35 (Q8NI35 238-335): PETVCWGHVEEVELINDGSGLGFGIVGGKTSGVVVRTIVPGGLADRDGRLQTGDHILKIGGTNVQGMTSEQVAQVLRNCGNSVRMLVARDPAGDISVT

| Binder | pKd (TJP2_1, Q9UDY2) | pKd (RADIL, Q96JH8) | pKd (MAST2, Q6P0Q8) | pKd (FRMPD4, Q14CM0) | pKd (IL16_4, Q14005) | pKd (SNX27, Q96L92) | pKd (LIN7B, Q9HAP6) | pKd (GRIP1_5, Q9Y3R0) | pKd (LAP2, Q96RT1) | pKd (TIAM2, Q8IVF5) | pKd (MAGI2_2, Q86UL8) | pKd (IL16_3, Q14005) | pKd (DLG1_1, Q12959) | pKd (LNX2_2, Q8N448) | pKd (DLG3_2, Q92796) | pKd (MPP2, Q14168) | pKd (PARD3_3, Q8TEW0) | pKd (HTRA3, P83110) | pKd (LNX2_3, Q8N448) | pKd (NOS1, P29475) | also measured |
| --- | --- | --- | --- | --- | --- | --- | --- | --- | --- | --- | --- | --- | --- | --- | --- | --- | --- | --- | --- | --- | --- |
| VKPQVSESKL [ACOT8, O14734] | below the threshold | below the threshold | 5.52 | 3.8 | below the threshold | 5.34 | 3.59 | below the threshold | below the threshold | 4.03 | 3.64 | below the threshold | below the threshold | below the threshold | 4.17 | below the threshold | below the threshold | below the threshold | below the threshold | below the threshold | pKd (ARHGAP21, Q5T5U3): below the threshold; pKd (NHERF3_1, Q5T2W1): 5.33; pKd (GRIP2_5, Q9C0E4): below the threshold; pKd (Inadl_2, Q8NI35): below the threshold; pKd (GRIP1_4, Q9Y3R0): below the threshold |
| PRAEAEDSFL [PDGFRB, P09619] | below the threshold | below the threshold | 5.62 | 4.57 | below the threshold | 4.71 | below the threshold | 3.53 | 3.53 | below the threshold | 3.55 | 3.5 | below the threshold | 3.54 | below the threshold | below the threshold | 4.11 | below the threshold | 3.54 | 3.57 | pKd (ARHGAP21, Q5T5U3): 4; pKd (NHERF3_1, Q5T2W1): 4.76; pKd (GRIP2_5, Q9C0E4): below the threshold; pKd (Inadl_2, Q8NI35): below the threshold; pKd (GRIP1_4, Q9Y3R0): below the threshold |
| EKKTLIGIKL [GOT1L1, Q8NHS2] | below the threshold | below the threshold | 4.66 | 4.47 | below the threshold | below the threshold | below the threshold | below the threshold | below the threshold | 3.57 | 3.52 | below the threshold | below the threshold | below the threshold | below the threshold | below the threshold | below the threshold | below the threshold | below the threshold | 3.56 | pKd (ARHGAP21, Q5T5U3): 4.09; pKd (NHERF3_1, Q5T2W1): 4.78; pKd (GRIP2_5, Q9C0E4): below the threshold; pKd (Inadl_2, Q8NI35): below the threshold; pKd (GRIP1_4, Q9Y3R0): below the threshold |
| EALLQMESVA [CAVIN3, Q969G5] | below the threshold | below the threshold | below the threshold | below the threshold | below the threshold | 4.13 | 3.57 | below the threshold | below the threshold | 4.12 | below the threshold | below the threshold | below the threshold | below the threshold | 4.21 | below the threshold | below the threshold | below the threshold | below the threshold | below the threshold | pKd (ARHGAP21, Q5T5U3): below the threshold; pKd (NHERF3_1, Q5T2W1): below the threshold; pKd (GRIP2_5, Q9C0E4): below the threshold; pKd (Inadl_2, Q8NI35): below the threshold; pKd (GRIP1_4, Q9Y3R0): below the threshold |
